The source of these data is article PMC12378428.

The Kd is the equilibrium constant for the complex coming apart. A lower Kd goes with a tighter complex.

The target in this series is hSOX2-HMG (Homo sapiens, UniProt P48431). The series is described as follows: EMSA. (In general: Mobility shift assays separate free from complexed probe on a gel.)

B1: P1/P2 SOX2 binding DNA (dsDNA)
DNA 1: GGAAACAATGGA
DNA 2: TCCATTGTTTCC
For B1, the Kd is approximately 610 nM.
